Here are results for 4 molecules from US20260218135A1 (REGENTS OF THE UNIVERSITY OF COLORADO A BODY CORPORATE, published 2026).

For assay [1], the target named is HA-PEG10 gag-pol (2x HA-tagged human PEG10, AA1-708) (Homo sapiens) (UniProt Q86TG7). The assay is described as follows: cell-based or functional assay.
Assay [2] concerns the target T1, FLAG-HsRTL8c-3'UTR (3x FLAG-tagged human RTL8c, AA1-113) (Homo sapiens, UniProt A6ZKI3 1-113).
T1 construct: range 1-113; Expressed in HEK293 cells from pcDNA3.1; also called FLAG-RTL8c; human FLAG-RTL8; not shown: 3x FLAG tag (N-terminal)
The assay is described as follows: crosslinking co-immunoprecipitation, IP-FLAG, HEK293 lysate, western blot. An excerpt: HA-PEG10 was visible as four distinct bands representing gag-pol, gag, and two self-cleavage products generated via activity of the PEG10 protease domain^{16,36,37}. The 37 kDa band represents a retrovirus-like capsid fragment, and the 22 kDa band reflects a protein fragment consisting of the N-terminal ~100 amino acids of the protein (referred to as the ‘N-terminal fragment’, or ‘NTF’) 16. Upon immunoprecipitation of HA-PEG10, Applicants observed co-immunoprecipitation of FLAG-RTL8c (FIG. 3a).
Beads were first crosslinked to antibodies. Primary antibodies (5 μg) or isotype controls (5 μL) were incubated with 40 μL protein A (Invitrogen) or protein G (Pierce) bead slurry for 30 min to couple antibodies to beads. After coupling, beads were collected by centrifugation and the supernatant discarded. Unless otherwise stated, all incubations and washes were performed with end-over-end rotation at room temperature. All centrifugation to collect beads was performed 2,500×g for 2 min. Beads were washed twice (1 mL 0.2M sodium borate, pH 9 for 1 min), resuspended in 400 μL 20 mM dimethyl pimelimidate (DMP, Thermo) and incubated for 30 min to crosslink antibodies. After crosslinking, beads were washed twice (1 mL 0.2M ethanolamine (EMD Millipore) pH 8 for 5 min) and incubated in 1.4 mL 0.2M ethanolamine for two hr. Beads were then washed twice (1 mL PBS for 5 min). […]

The target of assay [3] is T1, FLAG-HsRTL8c-3'UTR (3x FLAG-tagged …). Put plainly: co-immunoprecipitation with FLAG-RTL8c, western blot (FIG. S6b).

T1 sequence (A6ZKI3 whole entry, the tested form may be a part): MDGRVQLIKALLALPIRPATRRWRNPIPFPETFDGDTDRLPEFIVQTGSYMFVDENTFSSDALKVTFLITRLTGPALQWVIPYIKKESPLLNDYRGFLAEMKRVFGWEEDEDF

In assay [1], “HA-HsRTL8c-3'UTR (2x HA-tagged human RTL8c, AA1-113) (from UniProt A6ZKI3 1-113)” returned an abundance of HA-RTL8c relative to HA-PEG10 in the VLP fraction (western blot) of 5%.

B1: HA-capsid^CTD (human PEG10, AA161-259, 1x HA C-terminal) (other, Homo sapiens, UniProt Q86TG7 161-259, looked up)
chain: PQRREVAKRKIRRLRQGMGSVIDYSNAFQMIAQDLDWNEPALIDQYHEGLSDHIQEELSHLEVAKSLSALIGQCIHIERRLARAAAARKPRSPPRALVL
notes: range 161-259; not shown: 1x HA tag (C-terminal)
On to B1, for which the binding result in assay [2] is “no binding”.

B2: N-terminal fragment of HA-PEG10 (22 kDa self-cleavage product, N-terminal ~100 amino acids) (other, Homo sapiens, UniProt Q86TG7 1-111, looked up)
chain: MTERRRDELSEEINNLREKVMKQSEENNNLQSQVQKLTEENTTLREQVEPTPEDEDDDIELRGAAAAAAPPPPIEEECPEDLPEKFDGNPDMLAPFMAQCQIFMEKSTRDF
notes: A band on the blot; The construct that mimics it (AA1-111) is m6; also called NTF; shorter proteolytically cleaved N-terminal fragment; not shown: 2x HA tag (N-terminal) of the parent HA-PEG10 construct
Turning to B2, in assay [2], the binding result is “no binding”.

B3: HA-N-terminal fragment construct (2x HA-tagged human PEG10, AA1-111) (other, Homo sapiens, UniProt Q86TG7 1-111, looked up)
chain: B2 chain
notes: range 1-111; Truncation construct that mimics the natural self-cleavage of PEG10; also called HA-NTF; not shown: 2x HA tag (N-terminal)
Take B3: the binding result in assay [3] is “no binding”.
